For this experiment, the target named is HCoV-229E S glycoprotein wild-type soluble ectodomain (residues 1-1116) with C-terminal GCN4 trimerization motif (HCoV-229E) (UniProt P15423). The experiment can be described thus: cryo-EM structure; S trimer peak 2 (conformation 1, 3.21 A) and peak 3 (conformation 2, 3.55 A) samples at 0.75 mg/ml; C3 symmetry applied.

Among the data in publication PMC7794242 are stoichiometry N values, retold here.

As a reminder, the stoichiometry N is a count of units in the complex or per binding partner. “HCoV-229E S glycoprotein wild-type soluble ectodomain (residues 1-1116) with C-terminal GCN4 trimerization motif (from UniProt P15423 16-1116) (domain or fragment)” returned a stoichiometry N of 3.
